The target of this test is T1, BAG6, wild type, FLAG-tagged, exogenously overexpressed (pRK5-FLAG-Bag6) (UniProt P46379 1-1132).
T1 construct: BAG6, wild type, from pRK5-FLAG-Bag6 (Liu et al., 2014); In HEK293T cells the anti-BAG6 antibody also precipitates endogenous BAG6; also called wild type BAG6; ^fBAG6; source: HEK293T or BAG6-KO HEK293T, transfected, in lysate; not shown: FLAG, N-terminal, kept
Put plainly: co-IP; anti-BAG6 IP from soluble fractions of HEK293T cells overexpressing the fragments and BAG6 or BAG6ΔUBL; blots with anti-TDP43, anti-FLAG or anti-Myc; lysis/wash buffer 50 mM HEPES pH 7.5, 10% glycerol, 0.05% NP-40, 150 mM NaCl, 4°C. As to conditions: partners not purified.

T1 sequence (P46379 whole entry): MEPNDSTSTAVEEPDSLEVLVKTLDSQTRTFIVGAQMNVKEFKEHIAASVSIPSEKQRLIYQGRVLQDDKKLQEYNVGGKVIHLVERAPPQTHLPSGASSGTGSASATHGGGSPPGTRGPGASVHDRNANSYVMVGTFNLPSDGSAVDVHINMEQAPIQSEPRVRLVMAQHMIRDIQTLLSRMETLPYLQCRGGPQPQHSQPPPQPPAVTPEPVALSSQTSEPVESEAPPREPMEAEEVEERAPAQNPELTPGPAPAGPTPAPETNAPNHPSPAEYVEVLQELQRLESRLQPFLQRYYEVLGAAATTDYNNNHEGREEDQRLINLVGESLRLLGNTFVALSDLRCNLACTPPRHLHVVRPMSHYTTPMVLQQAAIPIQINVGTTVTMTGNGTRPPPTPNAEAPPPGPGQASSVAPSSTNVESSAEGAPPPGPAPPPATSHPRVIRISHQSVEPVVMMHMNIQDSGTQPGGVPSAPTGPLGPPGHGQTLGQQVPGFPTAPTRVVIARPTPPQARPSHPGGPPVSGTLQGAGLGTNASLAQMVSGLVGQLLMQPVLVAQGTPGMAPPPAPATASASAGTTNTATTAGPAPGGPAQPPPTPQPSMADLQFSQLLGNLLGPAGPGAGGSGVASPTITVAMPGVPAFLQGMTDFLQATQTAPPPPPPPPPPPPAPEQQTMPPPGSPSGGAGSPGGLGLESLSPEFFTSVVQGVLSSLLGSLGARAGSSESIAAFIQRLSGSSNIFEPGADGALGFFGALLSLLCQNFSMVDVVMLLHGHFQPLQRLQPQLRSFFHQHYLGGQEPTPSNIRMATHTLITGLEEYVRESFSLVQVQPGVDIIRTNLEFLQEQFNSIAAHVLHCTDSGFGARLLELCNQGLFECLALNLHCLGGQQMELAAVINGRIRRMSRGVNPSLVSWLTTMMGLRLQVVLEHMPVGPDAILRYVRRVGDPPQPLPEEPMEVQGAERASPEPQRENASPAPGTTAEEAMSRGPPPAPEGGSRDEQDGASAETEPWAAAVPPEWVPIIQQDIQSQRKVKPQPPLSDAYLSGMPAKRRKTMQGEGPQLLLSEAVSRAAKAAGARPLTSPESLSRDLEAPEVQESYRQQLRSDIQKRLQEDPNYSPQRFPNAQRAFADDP

B1: TDP43^219 (Val^219-TDP43^f), C-terminal fragment of human TDP43, amino acids 219 - 414, bearing N-terminal Val and a C-terminal FLAG tag (domain or fragment, UniProt Q13148 219-414, looked up)
chain: VVFIPKPFRAFAFVTFADDQIAQSLCGEDLIIKGISVHISNAEPKHNSNRQLERSGRFGGNPGGFGNQGGFGNSRGGGAGLGNNQGSNMGGGMNFGAFSINPAMMAAAQAALQSSWGMMGMLASQQNQSGPSGNNQNQGNMQREPNQAFGSGNNSYSGSNSGAAIGWGSASNAGSGSGFNGGFGSSMDSKSSGWGM
notes: the part up to the last residue of Ub is cut off co-translationally; not shown: FLAG, C-terminal, kept
With B1, the “fold affinity relative to TDP43^247 (densitometry of the co-immunoprecipitate)” value was roughly 5 fold.

(Values after article PMC9079172, “BAG6 prevents the aggregation of neurodegeneration-associated fragments of TDP43” (iScience, 2022).)
